The values below come from paper PMC11461620 (Nature Communications, 2024).

This data set concerns the molecule itself. The data set is described as follows: crystal structure.

B1: β-barrel domain of E. coli BamA (residues 426–810) (domain or fragment)
chain: not shown
modifications: biotin (EZ-Link NHS-PEG4-Biotin, chemical) in the SPR experiment only
On to B1, for which the binding result is reported as “binds”.
